# B1: UPF0688 protein C1orf174 (Homo sapiens), Q8IYL3 (parent)
# chain: MRSRKLTGAVRSSARLKARSCSAARLASAQEVAGSTSAKTACLTSSSHKATDTRTSKKFKCDKGHLVKSELQKLVPKNDSASLPKVTPETPCENEFAEGSALLPGSEAGVSVQQGAASLPLGGCRVVSDSRLAKTRDGLSVPKHSAGSGAEESNSSSTVQKQNEPGLQTEDVQKPPLQMDNSVFLDDDSNQPMPVSRFFGNVELMQDLPPASSSCPSMSRREFRKMHFRAKDDDDDDDDDAEM
# B2: Protein FAM9B (Homo sapiens), Q8IZU0 (parent)
# chain: MAAWGKKHAGKDPVRDECEERNRFTETREEDVTDEHGEREPFAETDEHTGANTKKPEDTAEDLTAKRKRMKMDKTCSKTKNKSKHALRKKQLKRQKRDYIHSLKLLNVLEEYITDEQKEEEEEEGEEEELIRIFQEQQKKWQQYRSVRRERLKEMKLLRDQFVKALEDFEDLCDRVFSDEDSELDN
# partner: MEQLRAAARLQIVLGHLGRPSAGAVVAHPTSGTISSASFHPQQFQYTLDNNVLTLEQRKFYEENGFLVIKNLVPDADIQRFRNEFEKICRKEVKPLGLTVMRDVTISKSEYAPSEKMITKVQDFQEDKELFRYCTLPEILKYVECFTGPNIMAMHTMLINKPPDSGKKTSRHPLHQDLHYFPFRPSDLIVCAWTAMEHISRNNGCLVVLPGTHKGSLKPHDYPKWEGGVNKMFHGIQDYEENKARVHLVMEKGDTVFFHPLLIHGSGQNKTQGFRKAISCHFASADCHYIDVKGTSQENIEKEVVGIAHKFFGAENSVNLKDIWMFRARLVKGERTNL
# B3: Actin filament-associated protein 1-like 1 (Homo sapiens), Q8TED9 (parent)
# chain: MDRGQVLEQLLPELTGLLSLLDHEYLSDTTLEKKMAVASILQSLQPLPAKEVSYLYVNTADLHSGPSFVESLFEEFDCDLSDLRDMPEDDGEPSKGASPELAKSPRLRNAADLPPPLPNKPPPEDYYEEALPLGPGKSPEYISSHNGCSPSHSIVDGYYEDADSSYPATRVNGELKSSYNDSDAMSSSYESYDEEEEEGKSPQPRHQWPSEEASMHLVRECRICAFLLRKKRFGQWAKQLTVIREDQLLCYKSSKDRQPHLRLALDTCSIIYVPKDSRHKRHELRFTQGATEVLVLALQSREQAEEWLKVIREVSKPVGGAEGVEVPRSPVLLCKLDLDKRLSQEKQTSDSDSVGVGDNCSTLGRRETCDHGKGKKSSLAELKGSMSRAAGRKITRIIGFSKKKTLADDLQTSSTEEEVPCCGYLNVLVNQGWKERWCRLKCNTLYFHKDHMDLRTHVNAIALQGCEVAPGFGPRHPFAFRILRNRQEVAILEASCSEDMGRWLGLLLVEMGSRVTPEALHYDYVDVETLTSIVSAGRNSFLYARSCQNQWPEPRVYDDVPYEKMQDEEPERPTGAQVKRHASSCSEKSHRVDPQVKVKRHASSANQYKYGKNRAEEDARRYLVEKEKLEKEKETIRTELIALRQEKRELKEAIRSSPGAKLKALEEAVATLEAQCRAKEERRIDLELKLVAVKERLQQSLAGGPALGLSVSSKPKSGETANKPQNSVPEQPLPVNCVSELRKRSPSIVASNQGRVLQKAKEWEMKKT
# partner: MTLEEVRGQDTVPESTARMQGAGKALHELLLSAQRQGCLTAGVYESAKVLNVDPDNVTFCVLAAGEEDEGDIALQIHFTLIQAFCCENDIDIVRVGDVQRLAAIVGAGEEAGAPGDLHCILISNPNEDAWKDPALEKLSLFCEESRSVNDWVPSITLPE
# B4: Emerin (Homo sapiens), P50402 (parent)
# chain: MDNYADLSDTELTTLLRRYNIPHGPVVGSTRRLYEKKIFEYETQRRRLSPPSSSAASSYSFSDLNSTRGDADMYDLPKKEDALLYQSKGYNDDYYEESYFTTRTYGEPESAGPSRAVRQSVTSFPDADAFHHQVHDDDLLSSSEEECKDRERPMYGRDSAYQSITHYRPVSASRSSLDLSYYPTSSSTSFMSSSSSSSSWLTRRAIRPENRAPGAGLGQDRQVPLWGQLLLFLVFVIVLFFIYHFMQAEEGNPF
# partner: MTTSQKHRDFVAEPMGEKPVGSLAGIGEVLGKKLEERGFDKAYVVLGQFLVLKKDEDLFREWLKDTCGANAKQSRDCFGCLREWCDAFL
# B5: Kinesin-like protein KIF20A (Homo sapiens), O95235 (parent)
# chain: MSQGILSPPAGLLSDDDVVVSPMFESTAADLGSVVRKNLLSDCSVVSTSLEDKQQVPSEDSMEKVKVYLRVRPLLPSELERQEDQGCVRIENVETLVLQAPKDSFALKSNERGIGQATHRFTFSQIFGPEVGQASFFNLTVKEMVKDVLKGQNWLIYTYGVTNSGKTHTIQGTIKDGGILPRSLALIFNSLQGQLHPTPDLKPLLSNEVIWLDSKQIRQEEMKKLSLLNGGLQEEELSTSLKRSVYIESRIGTSTSFDSGIAGLSSISQCTSSSQLDETSHRWAQPDTAPLPVPANIRFSIWISFFEIYNELLYDLLEPPSQQRKRQTLRLCEDQNGNPYVKDLNWIHVQDAEEAWKLLKVGRKNQSFASTHLNQNSSRSHSIFSIRILHLQGEGDIVPKISELSLCDLAGSERCKDQKSGERLKEAGNINTSLHTLGRCIAALRQNQQNRSKQNLVPFRDSKLTRVFQGFFTGRGRSCMIVNVNPCASTYDETLHVAKFSAIASQLVHAPPMQLGFPSLHSFIKEHSLQVSPSLEKGAKADTGLDDDIENEADISMYGKEELLQVVEAMKTLLLKERQEKLQLEMHLRDEICNEMVEQMQQREQWCSEHLDTQKELLEEMYEEKLNILKESLTSFYQEEIQERDEKIEELEALLQEARQQSVAHQQSGSELALRRSQRLAASASTQQLQEVKAKLQQCKAELNSTTEELHKYQKMLEPPPSAKPFTIDVDKKLEEGQKNIRLLRTELQKLGESLQSAERACCHSTGAGKLRQALTTCDDILIKQDQTLAELQNNMVLVKLDLRKKAACIAEQYHTVLKLQGQVSAKKRLGTNQENQQPNQQPPGKKPFLRNLLPRTPTCQSSTDCSPYARILRSRRSPLLKSGPFGKKY
# partner: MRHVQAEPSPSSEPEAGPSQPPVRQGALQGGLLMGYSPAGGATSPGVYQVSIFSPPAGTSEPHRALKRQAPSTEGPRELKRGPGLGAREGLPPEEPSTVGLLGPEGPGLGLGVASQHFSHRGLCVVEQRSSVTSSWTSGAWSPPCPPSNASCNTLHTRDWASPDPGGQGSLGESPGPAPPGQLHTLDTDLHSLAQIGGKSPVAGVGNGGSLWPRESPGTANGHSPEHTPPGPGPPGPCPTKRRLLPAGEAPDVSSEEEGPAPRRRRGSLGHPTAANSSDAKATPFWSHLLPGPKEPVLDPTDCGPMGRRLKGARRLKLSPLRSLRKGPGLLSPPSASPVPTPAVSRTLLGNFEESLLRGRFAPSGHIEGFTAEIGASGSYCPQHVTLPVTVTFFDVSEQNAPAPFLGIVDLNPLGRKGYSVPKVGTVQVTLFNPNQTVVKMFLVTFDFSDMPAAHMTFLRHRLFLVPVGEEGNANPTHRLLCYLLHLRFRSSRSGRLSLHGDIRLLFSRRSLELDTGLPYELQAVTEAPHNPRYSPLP
# Variants of: B1
# Details: with ikzf1_human IKZF1, Q13422
# Chain of ikzf1_human IKZF1, Q13422 (Q13422 whole entry): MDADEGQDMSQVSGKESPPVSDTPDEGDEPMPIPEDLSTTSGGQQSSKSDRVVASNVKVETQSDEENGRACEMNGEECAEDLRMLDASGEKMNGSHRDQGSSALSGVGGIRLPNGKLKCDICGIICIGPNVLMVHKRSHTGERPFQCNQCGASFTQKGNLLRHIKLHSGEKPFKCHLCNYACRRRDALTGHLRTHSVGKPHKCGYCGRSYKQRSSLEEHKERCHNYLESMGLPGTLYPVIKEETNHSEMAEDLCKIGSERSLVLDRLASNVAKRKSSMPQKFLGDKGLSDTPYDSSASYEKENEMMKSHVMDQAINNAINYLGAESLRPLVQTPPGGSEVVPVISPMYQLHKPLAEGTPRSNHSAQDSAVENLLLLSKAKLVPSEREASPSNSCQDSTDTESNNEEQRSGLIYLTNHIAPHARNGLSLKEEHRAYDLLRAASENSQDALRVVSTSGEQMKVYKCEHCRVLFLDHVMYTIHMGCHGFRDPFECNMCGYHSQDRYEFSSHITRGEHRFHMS
row,effect of a mutation on the interaction,Variant
1,with no effect,A81T
2,with no effect,R131C

# Variants of: B2
# Details: with pahx_human PHYH
row,effect of a mutation on the interaction,Variant
1,with no effect,R23H

# Variants of: B3
# Details: with ga45g_human GADD45G
row,effect of a mutation on the interaction,Variant
1,with no effect,S98N
2,with no effect,L406P

# Variants of: B4
# Details: with baf_human BANF1, O75531
row,Variant,effect of a mutation on the interaction
1,D72V,with no effect
2,S54F,with no effect

# Next, values leading:
row,effect of a mutation on the interaction,Variant
1,with no effect,P183T
2,with no effect,G156S
3,with no effect,R203H

# Variants of: B5
# Details: with atosb_human ATOSB
row,effect of a mutation on the interaction,Variant
1,disrupting interaction strength,S44F

# — IntAct's records for PubMed 31515488
